In patent US20030134310A1:

Assays:
[1] = target: control mRNA-protein fusion molecule containing an optimized v-abl phosphorylation site (…), phosphorylated by v-abl; experiment: immunoprecipitation of the mRNA-peptide fusion with 4G10 after the v-abl kinase reaction
[2] = target: control peptides (r-series) containing the same amino acids as the test peptides, but in a scrambled order
[3] = target: TC26 fragment of Shg (clone obtained in round five of the selection)

| Molecule | percent of fusion molecules immunoprecipitated [1] [%] | v-abl kinase activity on 5 µM substrate EAIYAAPFAKKK [2] | phosphorylation in vitro (full-length Shg protein) | phosphorylation of mutagenized TC26 peptides with [γ-32P]ATP [3] |
| --- | --- | --- | --- | --- |
| 4G10 anti-phosphotyrosine antibody (Upstate Biotechnology) | 3 | – | – | – |
| recombinant v-abl tyrosine kinase (New England Biolabs) (protein) YITPVNSLEKHSWYHGPVSRNAAEYLLSSGINGSFLVRESESSPGQRSISLRYEGRVYHYRINTASDGKLYVSSESRFNTLAELVHHHSTVADGLITTLHYPAPKRNKPTIYGVSPNYDKWEMERTDITMKHKLGGGQYGEVYEGVWKKYSLTVAVKTLKEDTMEVEEFLKEAAVMKEIKHPNLVQLLGVCTREPPFYIITEFMTYGNLLDYLRECNRQEVSAVVLLYMATQISSAMEYLEKKNFIHRDLAARNCLVGENHLVKVADFGLSRLMTGDTYTAHAGAKFPIKWTAPESLAYNKFSIKSDVWAFGVLLWEIATYGMSPYPGIDLSQVYELLEKDYRMERPEGCPEKVYELMRACWQWNPSDRPSFAEIHQAFETMFQESSISDEVEKELGKRG | – | did not have a significant effect on v-abl kinase activity | the full-length Shg protein was phosphorylated by both v-abl and ZAP 70 in vitro | only the first tyrosine is a substrate for v-abl |
| ZAP 70 kinase (protein) MPDPAAHLPFFYGSISRAEAEEHLKLAGMADGLFLLRQCLRSLGGYVLSLVHDVRFHHFPIERQLNGTYAIAGGKAHCGPAELCEFYSRDPDGLPCNLRKPCNRPSGLEPQPGVFDCLRDAMVRDYVRQTWKLEGEALEQAIISQAPQVEKLIATTAHERMPWYHSSLTREEAERKLYSGAQTDGKFLLRPRKEQGTYALSLIYGKTVYHYLISQDKAGKYCIPEGTKFDTLWQLVEYLKLKADGLIYCLKEACPNSSASNASGAAAPTLPAHPSTLTHPQRRIDTLNSDGYTPEPARITSPDKPRPMPMDTSVYESPYSDPEELKDKKLFLKRDNLLIADIELGCGNFGSVRQGVYRMRKKQIDVAIKVLKQGTEKADTEEMMREAQIMHQLDNPYIVRLIGVCQAEALMLVMEMAGGGPLHKFLVGKREEIPVSNVAELLHQVSMGMKYLEEKNFVHRDLAARNVLLVNRHYAKISDFGLSKALGADDSYYTARSAGKWPLKWYAPECINFRKFSSRSDVWSYGVTMWEALSYGQKPYKKMKGPEVMAFIEQGKRMECPPECPPELYALMSDCWIYKWEDRPDFLTVEQRMRACYYSLASKVEGPPGSTQKAEAACA | – | – | the full-length Shg protein was phosphorylated by both v-abl and ZAP 70 in vitro | – |
